Measured values taken from patent publication JP2006246896A.

Molecular target: ヒトEGFレセプター(細胞表面に発現) (human) (UniProt P00533)
Assay: cell ELISA on glutaraldehyde-fixed A431 cells, compared with chimeric C225

B1: 再形成ヒトH225抗体(225RKA/225RHA) (antibody, V domains shown)
VH: EVQLVESGGGLVQPGGSLRLSCAVSGFSLTNYGVHWVRQATGKGLEWLGVIWSGGNTDYNTPFTSRLTISKENAKNSLYLQMNSLRAGDTAVYYCARALTYYDYEFAYWGQGTM
VL: EIVLTQSPATLSLSPGERATLSCRASQSIGTNIHWYQQRPGQAPRLLIKYASESISGIPARFSGSGSGTDFTLTISSLEPEDFAVYYCQQNNNWPTTFGGG
相対親和力 (relative to chimeric C225): 65%
